Test results reported in IntAct's records for PubMed 18923430.

Biological target: dnjc3_mouse Dnajc3 (UniProt Q91YW3)
Sequence (Q91YW3 whole entry): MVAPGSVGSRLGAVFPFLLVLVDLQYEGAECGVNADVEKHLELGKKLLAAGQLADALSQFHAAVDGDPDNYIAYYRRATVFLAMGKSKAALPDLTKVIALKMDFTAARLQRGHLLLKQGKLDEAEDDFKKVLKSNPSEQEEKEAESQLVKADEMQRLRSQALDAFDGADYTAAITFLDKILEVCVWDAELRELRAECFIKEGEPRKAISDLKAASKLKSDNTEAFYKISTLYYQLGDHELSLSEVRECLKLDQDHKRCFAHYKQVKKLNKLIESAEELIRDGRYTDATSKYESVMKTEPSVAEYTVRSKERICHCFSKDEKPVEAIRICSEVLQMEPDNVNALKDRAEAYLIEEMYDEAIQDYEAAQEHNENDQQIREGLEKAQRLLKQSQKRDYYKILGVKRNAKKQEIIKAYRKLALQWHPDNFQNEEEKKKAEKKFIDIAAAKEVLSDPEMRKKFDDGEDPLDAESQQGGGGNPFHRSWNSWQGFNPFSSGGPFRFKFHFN

“Endoplasmic reticulum chaperone BiP (Homo sapiens), P11021 E201G” was tested. Which “effect of a mutation on the interaction” value did it give?
Its value is “disrupting interaction”.
